Source: patent US20150118239A1 (GEORG AUGUST UNIVERSIT T G TTINGEN STIFTUNG FFENTLICHEN …, published 2015)

Key:
[1] = target: T1, AβpE3-42 low molecular weight (LMW) oligomers (human, N-terminal pyroglutamate at Aβ position 3 (pE3)); experiment: native Western blot, sensitivity test
T1 construct: otherwise only LMW oligomers

[2] = target: T2, Aβ4-42 low molecular weight (LMW) oligomers (human); experiment: native Western blot, sensitivity test
T2 construct: otherwise only LMW oligomers; also called Aβ4-42 oligomers

[3] = target: Aβ4-42 (human); experiment: cell-based or functional assay
[4] = target: Aβ4-40 (human); experiment: cell-based or functional assay
[5] = target: Aβ4-38 (human); experiment: cell-based or functional assay
[6] = target: AβpE3-42 (human, N-terminal pyroglutamate at Aβ position 3 (pE3)); experiment: cell-based or functional assay
[7] = target: α-Synuclein aggregates (Lewy bodies, Lewy neurites, glial cytoplasmic inclusions) (human, UniProt P37840 1-140); experiment: IHC, brain sections of non-AD neurodegenerative disorders
[8] = target: T3, Phospho-TDP-43 neuronal cytoplasmic and neuritic deposits (human, UniProt Q13148 1-414, limits assumed, phosphorylated, sites not stated); experiment: as above
T3 construct: Tissue aggregates in patients' brain sections

[9] = target: T4, Phospho-Tau aggregates (tufted astrocytes in PSP, Pick bodies in PiD) (human, UniProt P10636-8 2-441, limits assumed, phosphorylated, sites not stated); experiment: as above
T4 construct: Tissue aggregates in patients' brain sections; also called pTau

[10] = target: T5, Prion protein (PrP) deposits (human, UniProt P04156 23-230); experiment: as above
T5 construct: also called PrP immunopositive amyloid plaques, synaptic, plaque-like and perineuronal deposits

[11] = target: T6, Aβ36-40 (human); experiment: hybridoma screening ELISA
T6 construct: Counter-screening peptide of the hybridoma ELISA
T6 peptide: VGGVV

[12] = target: T7, Aβ4-10 (human); experiment: hybridoma screening ELISA
T7 construct: Screening peptide of the hybridoma ELISA
T7 peptide: FRHDSGY

[13] = target: T8, Aβ4-40 (human); experiment: native Western blot, equal amounts of freshly dissolved peptides
T8 construct: Synthetic peptide, the immunogen

[14] = target: T9, Aβ4-38 (human); experiment: as above
T9 construct: Synthetic peptide

[15] = target: T10, Aβ5-20 (human); experiment: pepscan ELISA
T10 construct: Pepscan 16-mer
T10 peptide: RHDSGYEVHHQKLVFF

[16] = target: T11, Aβ2-17 (human); experiment: pepscan ELISA, coated 16-mer peptides, antibody 7 µg/ml
T11 construct: Pepscan 16-mer
T11 peptide: AEFRHDSGYEVHHQKL

[17] = target: T12, Aβ4-19 (human); experiment: as above
T12 construct: Pepscan 16-mer
T12 peptide: FRHDSGYEVHHQKLVF

[18] = target: T13, Aβ3-18 (human); experiment: as above
T13 construct: Pepscan 16-mer
T13 peptide: EFRHDSGYEVHHQKLV

B1: NT4X-167 (antibody, V domains shown)
VH: QVQLKQSGPGLVQPSQSLSITCTVSGFSLTSYGIHWVRQSPGKGLEWLGVMWSGGITDFYAAFISRLSISRDISKSQVFFKMNSLQADDTAIYYCARGSRYALDYWGQGTSVSVSS
VL: DIQMTQTTSSLSASLGDRVTISCRASQDISNYLNWYQQKPDGTVKLLIYYTSRLHSGVPSRFSGSGSGTDYSLTISNLEQEDIATYFCQQGNTLPPTFGGGTKLEIK
notes: also called NT4X-67
B1 was tested, and the “peptide amount giving similar signal intensity” value [1] was 70 ng, the “peptide amount giving similar signal intensity” value [2] was 70 ng and the “viability of SH-SY5Y cells (MTS), aged 10 µM peptide with against without antibody” value (“viability … against without antibody” below) [3] was < 0.01 p value. For the same binder, the “viability … against without antibody” value [4] was < 0.01 p value, the “viability … against without antibody” value [5] was < 0.01 p value and the “viability … against without antibody” value [6] was < 0.05 p value. B1: no binding [7]; no binding [8]; no binding [9]. B1: no binding [10]; no binding [11]; binds [12].

B2: NT4X-83 (antibody, V domains shown)
VH: EVHLQQSGAELVKPGASVKLSCTASGFNIRDTYIHWVKQRPEQGLEWIGRVDPANGNTKYDPKFQGKATITADTSSDTAYLQLSSLTAEDTAVYFCARRIYYGYALFAYWGQGTLVTVSA
VL: DIVMTQSPSSLTVTAGEKVTMSCKSSQSLLNSGNQKNYLTWYQQKPGQPPKLLIYWASTRESGVPDRFTGSGSGTDFTLTISSVQAEDLAVYYCQNDYSYPLTFGAGTKLELK
notes: also called Aβ4-40 NT4X-83; DSM ACC3161
B2: binds [13]; binds [14]; no binding (tested: 7 µg/ml) [15]. For the same binder, the “peptide amount giving similar signal intensity” value [1] was 500 ng, the “peptide amount giving similar signal intensity” value [2] was 500 ng and the binding result [7] was “no binding”. B2: no binding [8]; no binding [9]; no binding [10]. B2: binds [16]; binds [17]; binds [18]. B2: no binding [11]; binds [12].
